# US20150037328A1 (Pfizer, published 2015)
# What was measured:
# [1] = target: T1, human CXCR4 (chemokine (C-X-C motif) receptor 4) (human, UniProt P61073 1-352); test: flow cytometry on HPB-ALL cells, Fab at 2.5 µg/ml
# T1 construct: Endogenous on human tumour cell lines (Ramos, HPB-ALL, Raji, Jurkat, MM1.S, RPMI-8226, MOLP-8, MOLT-4) or transfected into CHO-K1 cells (DiscoveRx); also called CXCR4 receptor
# [2] = target: T1, human CXCR4 (chemokine (C-X-C motif) …); test: flow cytometry on HPB-ALL cells, Fab at 0.25 µg/ml
# [3] = target: T1, human CXCR4 (chemokine (C-X-C motif) …); test: flow cytometry on HPB-ALL cells, Fab at 0.25 µg/mL
# Procedure: Binding of CXCR4 Fabs to CXCR4-expressing cells were measured by flow cytometry on HPB-ALL (Human T cell leukemia) cells. 150,000 HPB-ALL cells were resuspended in 100 uL FACS buffer (1×PBS+0.5% BSA) on 96 well plates. […] After removing the primary antibodies the cells were washed twice with FACS buffer and then resuspended in FACS buffer and 2 uL (3 ug) of 2nd Ab (Alexa Fluor 647-conjugated goat anti-human IgG, F(ab′)2 specific, Jackson ImmunoResearch Laboratories, West Grove Pa.) was then added to each well. The plates were incubated at 4 degree for another 30 min. Fluorescence signals were acquired by cell analyzer LSRII (BD Biosciences, San Jose Calif.).
# [4] = target: T2, human CXCR4-enriched lipoparticles (LEV101, Integral Molecular) (human, UniProt P61073 1-352); test: biosensor kinetic titration, Fab over captured human CXCR4 lipoparticles
# T2 construct: Bought reagent; CXCR4 held in lipoparticles captured by biotinylated WGA on an SA chip; also called Lipoparticles containing CXCR4 proteins
# Procedure: The binding affinity of each Fab was determined using human CXCR4-enriched lipoparticles (LEV101, Integral Molecular, Philadelphia Pa.). Biotinylated WGA (Sigma Aldrich, St. Louis Mo.)) can be coated on the SA chip to facilitate capturing lipoparticles containing CXCR4 proteins. […] J. Mol. Recognit.
# T1 sequence (P61073 whole entry): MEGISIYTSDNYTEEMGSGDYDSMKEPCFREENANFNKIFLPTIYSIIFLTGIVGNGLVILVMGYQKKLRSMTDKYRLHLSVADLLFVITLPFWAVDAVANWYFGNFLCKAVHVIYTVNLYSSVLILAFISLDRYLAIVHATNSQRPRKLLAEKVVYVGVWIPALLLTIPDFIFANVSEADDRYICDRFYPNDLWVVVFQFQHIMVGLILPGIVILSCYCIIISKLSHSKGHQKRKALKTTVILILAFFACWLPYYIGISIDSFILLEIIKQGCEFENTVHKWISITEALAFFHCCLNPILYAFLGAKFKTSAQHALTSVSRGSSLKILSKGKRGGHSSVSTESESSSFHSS
# T2 sequence (P61073 whole entry): as above
Binder,MFI [1],MFI [2],MFI [3],Kd [4],koff [4],kon [4],t½ [4]
"h3G10.A57 VH / h3G10.2.72 VL Fab (Fab, V domains shown, Tested as Fab) VH: EVQLVESGGGLVQPGGSLRLSCAASGFTFSDYYMSWVRQAPGKGLEWVGFIRHKANFYTTEYSTSVKGRFTISRDDSKNSLYLQMNSLKTEDTAVYYCARDLPGFAYWGQGTLVTVSS VL: DIVMTQSPDSLAVSLGERATINCKSSQSLFNSRTRKNYLAWYQQKPGQPPKLLIYWASARESGVPDRFSGSGSGTDFTLTISSLQAEDVAVYYCKQSFRLRTFGGGTKVEIK",4330,1220,2770,1120 pM,0.0013 s⁻¹,1.1e+06 M⁻¹ s⁻¹,9 min
"h3G10.1.7 VH / h3G10.2.72 VL Fab (Fab, V domains shown, Tested as Fab) VH: EVQLVESGGGLVQPGGSLRLSCAASGFTFSDYYMSWVRQAPGKGLEWVGFIRHKANKYTTEYSTSVKGRFTISRDDSKNSLYLQMNSLKTEDTAVYYCARDLPGFAYWGQGTLVTVSS VL: DIVMTQSPDSLAVSLGERATINCKSSQSLFNSRTRKNYLAWYQQKPGQPPKLLIYWASARESGVPDRFSGSGSGTDFTLTISSLQAEDVAVYYCKQSFRLRTFGGGTKVEIK",4120,768,–,–,–,–,–
"h3G10.1.33 VH / h3G10.2.72 VL Fab (Fab, V domains shown, Tested as Fab) VH: EVQLVESGGGLVQPGGSLRLSCAASGFTFSDYYMSWVRQAPGKGLEWVGFIRHKANFYTTEYSTSVTGRFTISRDDSKNSLYLQMNSLKTEDTAVYYCARDLPGFAYWGQGTLVTVSS VL: DIVMTQSPDSLAVSLGERATINCKSSQSLFNSRTRKNYLAWYQQKPGQPPKLLIYWASARESGVPDRFSGSGSGTDFTLTISSLQAEDVAVYYCKQSFRLRTFGGGTKVEIK",4140,848,–,–,–,–,–
"h3G10.1.60 VH / h3G10.2.72 VL Fab (Fab, V domains shown, Tested as Fab) VH: EVQLVESGGGLVQPGGSLRLSCAASGFTFSDYYMSWVRQAPGKGLEWVGFIRHKANVYTTEYSTSVKGRFTISRDDSKNSLYLQMNSLKTEDTAVYYCARDLPGFAYWGQGTLVTVSS VL: DIVMTQSPDSLAVSLGERATINCKSSQSLFNSRTRKNYLAWYQQKPGQPPKLLIYWASARESGVPDRFSGSGSGTDFTLTISSLQAEDVAVYYCKQSFRLRTFGGGTKVEIK",2810,396,–,–,–,–,–
"h3G10.2.5 VH / h3G10.2.72 VL Fab (Fab, V domains shown, Tested as Fab) VH: EVQLVESGGGLVQPGGSLRLSCAASGFTFSDYYMSWVRQAPGKGLEWVGFIRHKANIYTTEYSTSVKGRFTISRDDSKNSLYLQMNSLKTEDTAVYYCARDLPGFAYWGQGTLVTVSS VL: DIVMTQSPDSLAVSLGERATINCKSSQSLFNSRTRKNYLAWYQQKPGQPPKLLIYWASARESGVPDRFSGSGSGTDFTLTISSLQAEDVAVYYCKQSFRLRTFGGGTKVEIK",2790,390,–,–,–,–,–
"h3G10.2.42 VH / h3G10.2.72 VL Fab (Fab, V domains shown, Tested as Fab) VH: EVQLVESGGGLVQPGGSLRLSCAASGFTFSDYYMSWVRQAPGKGLEWVGFIRHKVNFYTTEYSTSVKGRFTISRDDSKNSLYLQMNSLKTEDTAVYYCARDLPGFAYWGQGTLVTVSS VL: DIVMTQSPDSLAVSLGERATINCKSSQSLFNSRTRKNYLAWYQQKPGQPPKLLIYWASARESGVPDRFSGSGSGTDFTLTISSLQAEDVAVYYCKQSFRLRTFGGGTKVEIK",4720,1760,–,–,–,–,–
"h3G10.2.45 VH / h3G10.2.72 VL Fab (Fab, V domains shown, Tested as Fab) VH: EVQLVESGGGLVQPGGSLRLSCAASGFTFSDYYMSWVRQAPGKGLEWVGFIRHKANFYTTEYSTWVKGRFTISRDDSKNSLYLQMNSLKTEDTAVYYCARDLPGFAYWGQGTLVTVSS VL: DIVMTQSPDSLAVSLGERATINCKSSQSLFNSRTRKNYLAWYQQKPGQPPKLLIYWASARESGVPDRFSGSGSGTDFTLTISSLQAEDVAVYYCKQSFRLRTFGGGTKVEIK",2780,929,–,–,–,–,–
"h3G10.2.54 VH / h3G10.2.72 VL Fab (Fab, V domains shown, Tested as Fab) VH: EVQLVESGGGLVQPGGSLRLSCAASGFTFSDYYMSWVRQAPGKGLEWVGFIRHKANFYTTEYSTSVRGRFTISRDDSKNSLYLQMNSLKTEDTAVYYCARDLPGFAYWGQGTLVTVSS VL: DIVMTQSPDSLAVSLGERATINCKSSQSLFNSRTRKNYLAWYQQKPGQPPKLLIYWASARESGVPDRFSGSGSGTDFTLTISSLQAEDVAVYYCKQSFRLRTFGGGTKVEIK",4610,1740,–,–,–,–,–
"h3G10.3.25 VH / h3G10.2.72 VL Fab (Fab, V domains shown, Tested as Fab) VH: EVQLVESGGGLVQPGGSLRLSCAASGFTFSDYYMSWVRQAPGKGLEWVGFIRHKANFYTTEYSTSDKGRFTISRDDSKNSLYLQMNSLKTEDTAVYYCARDLPGFAYWGQGTLVTVSS VL: DIVMTQSPDSLAVSLGERATINCKSSQSLFNSRTRKNYLAWYQQKPGQPPKLLIYWASARESGVPDRFSGSGSGTDFTLTISSLQAEDVAVYYCKQSFRLRTFGGGTKVEIK",2680,454,–,–,–,–,–
"h3G10.A57 VH / h3G10.2.25 VL Fab (Fab, V domains shown, Tested as Fab) VH: EVQLVESGGGLVQPGGSLRLSCAASGFTFSDYYMSWVRQAPGKGLEWVGFIRHKANFYTTEYSTSVKGRFTISRDDSKNSLYLQMNSLKTEDTAVYYCARDLPGFAYWGQGTLVTVSS VL: DIVMTQSPDSLAVSLGERATINCRSSQSLFNSRTRKNYLAWYQQKPGQPPKLLIYWASARESGVPDRFSGSGSGTDFTLTISSLQAEDVAVYYCKQSFRLRTFGGGTKVEIK",5000,1380,–,–,–,–,–
"h3G10.B44 VH / h3G10.A58A VL Fab (Fab, V domains shown, Tested as Fab) VH: EVQLVESGGGLVQPGGSLRLSCAASGFTFSDYYMSWVRQAPGKGLEWVSFIRHKANFYTTEYSTSVKGRFTISRDNSKNTLYLQMNSLRAEDTAVYYCAKDLPGFAYWGQGTLVTVSS VL: DIVMTQSPDSLAVSLGERATINCKSSQSLFNSHTRKNYLAWYQQKPGQPPKLLIYWASARGSGVPDRFSGSGSGTDFTLTISSLQAEDVAVYYCKQSFRLRTFGGGTKVEIK",9410,5120,–,–,–,–,–
"h3G10.A57 VH / h3G10.A58A VL Fab (Fab, V domains shown, Tested as Fab) VH: EVQLVESGGGLVQPGGSLRLSCAASGFTFSDYYMSWVRQAPGKGLEWVGFIRHKANFYTTEYSTSVKGRFTISRDDSKNSLYLQMNSLKTEDTAVYYCARDLPGFAYWGQGTLVTVSS VL: DIVMTQSPDSLAVSLGERATINCKSSQSLFNSHTRKNYLAWYQQKPGQPPKLLIYWASARGSGVPDRFSGSGSGTDFTLTISSLQAEDVAVYYCKQSFRLRTFGGGTKVEIK",7400,3610,3890,390 pM,0.00063 s⁻¹,1.6e+06 M⁻¹ s⁻¹,18.2 min
"h3G10.1.91 VH / h3G10.A58A VL Fab (Fab, V domains shown, Tested as Fab) VH: EVQLVESGGGLVQPGGSLRLSCAASGFTFSDYYMSWVRQAPGKGLEWVGFIRHKANFETTEYSTSVKGRFTISRDDSKNSLYLQMNSLKTEDTAVYYCARDLPGFAYWGQGTLVTVSS VL: DIVMTQSPDSLAVSLGERATINCKSSQSLFNSHTRKNYLAWYQQKPGQPPKLLIYWASARGSGVPDRFSGSGSGTDFTLTISSLQAEDVAVYYCKQSFRLRTFGGGTKVEIK",–,–,5050,380 pM,0.000341 s⁻¹,908000 M⁻¹ s⁻¹,33.9 min
"h3G10.1.91 VH / h3G10.A58B VL Fab (Fab, V domains shown, Tested as Fab) VH: EVQLVESGGGLVQPGGSLRLSCAASGFTFSDYYMSWVRQAPGKGLEWVGFIRHKANFETTEYSTSVKGRFTISRDDSKNSLYLQMNSLKTEDTAVYYCARDLPGFAYWGQGTLVTVSS VL: DIVMTQSPDSLAVSLGERATINCKSSQSLFNSHTRKNYLAWYQQKPGQPPKLLIYWASARGSGVPDRFSGSGSGTDFTLTISSLQAEDVAVYYCKQSFNLRTFGGGTKVEIK",–,–,4630,360 pM,0.000286 s⁻¹,803000 M⁻¹ s⁻¹,40.4 min
"h3G10.2.37 VH / h3G10.A58A VL Fab (Fab, V domains shown, Tested as Fab) VH: EVQLVESGGGLVQPGGSLRLSCAASGFTFSDYYMSWVRQAPGKGLEWVGFIRHKANFYTREYSTSVKGRFTISRDDSKNSLYLQMNSLKTEDTAVYYCARDLPGFAYWGQGTLVTVSS VL: DIVMTQSPDSLAVSLGERATINCKSSQSLFNSHTRKNYLAWYQQKPGQPPKLLIYWASARGSGVPDRFSGSGSGTDFTLTISSLQAEDVAVYYCKQSFRLRTFGGGTKVEIK",–,–,4070,320 pM,0.000418 s⁻¹,1.29e+06 M⁻¹ s⁻¹,27.6 min
"h3G10.2.37 VH / h3G10.A58B VL Fab (Fab, V domains shown, Tested as Fab) VH: EVQLVESGGGLVQPGGSLRLSCAASGFTFSDYYMSWVRQAPGKGLEWVGFIRHKANFYTREYSTSVKGRFTISRDDSKNSLYLQMNSLKTEDTAVYYCARDLPGFAYWGQGTLVTVSS VL: DIVMTQSPDSLAVSLGERATINCKSSQSLFNSHTRKNYLAWYQQKPGQPPKLLIYWASARGSGVPDRFSGSGSGTDFTLTISSLQAEDVAVYYCKQSFNLRTFGGGTKVEIK",–,–,4550,560 pM,0.000449 s⁻¹,797000 M⁻¹ s⁻¹,25.7 min
"h3G10.A57 VH / h3G10.A58B VL Fab (Fab, V domains shown, Tested as Fab) VH: EVQLVESGGGLVQPGGSLRLSCAASGFTFSDYYMSWVRQAPGKGLEWVGFIRHKANFYTTEYSTSVKGRFTISRDDSKNSLYLQMNSLKTEDTAVYYCARDLPGFAYWGQGTLVTVSS VL: DIVMTQSPDSLAVSLGERATINCKSSQSLFNSHTRKNYLAWYQQKPGQPPKLLIYWASARGSGVPDRFSGSGSGTDFTLTISSLQAEDVAVYYCKQSFNLRTFGGGTKVEIK",–,–,3090,750 pM,0.000515 s⁻¹,688000 M⁻¹ s⁻¹,22.4 min
